The target in one test is 18AKF20-->TEG. Kind of test: SPR, ProteOn XPR36, 25 C: mAb captured on anti-Fc surface, ST2L-D1D2 (HH-ST2L) wild type or variant injected, 1:1 model. Background: In SPR one partner is held on a chip, and binding of the other changes the refractive index at the surface.
The target in test [1] is T1, human ST2L extracellular domain with C-terminal His6 tag (human, UniProt Q01638 19-328).
T1 construct: also called huST2L-ECD; ST2L-ECD
T1 sequence: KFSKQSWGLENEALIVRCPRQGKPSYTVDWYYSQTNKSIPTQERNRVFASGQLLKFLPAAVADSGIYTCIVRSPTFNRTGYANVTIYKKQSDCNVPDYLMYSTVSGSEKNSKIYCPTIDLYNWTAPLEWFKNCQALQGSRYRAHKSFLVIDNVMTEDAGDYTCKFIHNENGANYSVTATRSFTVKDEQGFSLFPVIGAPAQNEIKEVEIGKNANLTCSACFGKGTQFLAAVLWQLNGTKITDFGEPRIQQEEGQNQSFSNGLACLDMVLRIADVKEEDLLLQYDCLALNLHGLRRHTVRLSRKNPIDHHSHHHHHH
The test can be described thus: SPR, captured mAb, ST2L-ECD analyte.

For test [2], the target named is T2, cynomolgus ST2L extracellular domain with C-terminal His6 tag (Macaca fascicularis (cyno), UniProt Q01638 19-321 (human entry)).
T2 construct: also called cynoST2L-ECD; cyno ST2L
T2 chain: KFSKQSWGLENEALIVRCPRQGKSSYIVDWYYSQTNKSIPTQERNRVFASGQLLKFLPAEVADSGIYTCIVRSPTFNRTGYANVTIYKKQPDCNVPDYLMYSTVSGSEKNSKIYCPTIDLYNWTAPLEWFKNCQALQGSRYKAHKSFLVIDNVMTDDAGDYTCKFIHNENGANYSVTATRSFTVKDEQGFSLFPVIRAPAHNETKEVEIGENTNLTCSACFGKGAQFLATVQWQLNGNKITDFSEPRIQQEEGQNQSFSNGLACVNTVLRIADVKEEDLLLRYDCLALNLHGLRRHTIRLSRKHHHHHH
The test can be described thus: SPR, captured mAb, ST2L-ECD analyte.

Test [3] deals with T1, human ST2L extracellular domain with …. Kind of test: RLB ELISA, inhibition of biotin-IL-33 binding to coated huST2L-ECD. (An ELISA detects its analyte on a solid surface through an enzyme-linked reagent.)
Test [4] shares this target. Kind of test: SPR, captured mAb, ST2L-ECD analyte. The protocol: (§1) The interactions of anti-ST2L antibodies with His₆-tagged human ST2L-ECD and His₆-tagged cyno ST2L-ECD were studied by ProteOn using a ProteOn XPR36 at 25° C. A biosensor surface was prepared by coupling goat anti-human IgG Fcγ fragment specific antibody (Ab) to the surface of a GLC sensor chip using the manufacturer instructions for amine-coupling chemistry. The coupling buffer was 10 mM sodium acetate, pH 4.5. The goat anti-human IgG Fcγ (about 4500 response units) was immobilized in the horizontal orientation. The anti-ST2L antibodies were provided purified, or in crude supernatants. In either case these antibodies were diluted in PRB (PBS pH 7.4, supplemented with, 3 mM EDTA, and 0.005% Tween 20) to a concentration of about 0.5 μg/mL. The antibodies were captured (60-130 RU) in the vertical orientation onto the anti-human Fcγ antibody-modified GLC chip. Capture of anti-ST2L mAbs was followed by injection of huST2L ECD in solution (0.024 to 15 nM in 5-fold dilutions) or cynoST2L ECD in solution (0.020-5 nM in 4-fold dilutions) in the horizontal orientation. The association was monitored for 4 minutes in all experiments (200 μL injected at 50 μL/min). The dissociation was monitored for 30 minutes. Regeneration of the sensor surface was obtained with three 15 sec pulses of 10 mM glycine pH 1.5. The data were fit using the ProteOn software and using a 1:1 binding model with mass transfer.
This is another data set of the same source.

Test [5] deals with T2, cynomolgus ST2L extracellular domain …. The test can be described thus: SPR, captured mAb, ST2L-ECD analyte. As to the method: as §1
For a further test, the target named is T3, human ST2L on cells (human, UniProt Q01638 19-556).
T3 sequence: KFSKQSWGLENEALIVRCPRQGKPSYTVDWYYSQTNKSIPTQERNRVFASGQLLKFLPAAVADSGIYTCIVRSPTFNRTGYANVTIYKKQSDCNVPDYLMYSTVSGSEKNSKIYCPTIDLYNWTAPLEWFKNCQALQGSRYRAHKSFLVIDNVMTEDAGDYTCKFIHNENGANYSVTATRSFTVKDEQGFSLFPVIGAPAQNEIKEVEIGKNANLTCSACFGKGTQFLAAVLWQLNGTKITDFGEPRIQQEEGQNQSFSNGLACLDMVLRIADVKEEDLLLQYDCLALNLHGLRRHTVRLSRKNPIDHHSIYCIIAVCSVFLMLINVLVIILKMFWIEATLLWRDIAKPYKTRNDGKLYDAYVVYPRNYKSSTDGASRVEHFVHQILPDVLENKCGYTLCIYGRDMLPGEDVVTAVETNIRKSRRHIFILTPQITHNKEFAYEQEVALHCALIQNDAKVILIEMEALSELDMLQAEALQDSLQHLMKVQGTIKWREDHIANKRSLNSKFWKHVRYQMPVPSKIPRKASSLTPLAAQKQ
Kind of test: cell-based or functional assay.

In test [6] the target is T1, human ST2L extracellular domain with …. The test can be described thus: MSD electrochemiluminescence competition assay on plate-coated ST2L-ECD; unlabeled antibody titrated against 30 nM sulfo-tag labeled C2244 Fab. As to the method: Competition binding assays were performed to evaluate different binding epitope groups for anti-ST2L mAbs. 5 μl (10 μg/ml) of ST2L-ECD protein was coated on MSD HighBind plate (Meso Scale Discovery, Gaithersburg, Md.) per well for 2 hr at room temperature. One-hundred and fifty microliters of 5% MSD Blocker A buffer (Meso Scale Discovery, Gaithersburg, Md.) was added to each well and incubated for 2 hr at room temperature. Plates were washed three times with 0.1 M HEPES buffer, pH 7.4, followed by the addition of the mixture of the MSD fluorescence dye (sulfo tag, NHS ester) labeled individual anti-ST2L antibody with different competitors. Labeled antibody, 10 or 30 nM, was incubated with increasing concentrations of competitor antibodies, from 1 nM to 2 or 5 μM, and then added to the designated wells in a volume of 25 μL mixture. After 2-hour incubation with gentle shaking at room temperature, plates were washed 3 times with 0.1M HEPES buffer (pH 7.4). MSD Read Buffer T was diluted with distilled water (4-fold) and dispensed at a volume of 150 μL/well and analyzed with a SECTOR Imager 6000.

These results are taken from US20130336980A1 (Janssen / Centocor, published 2013).

Positions count from the first letter of the chain named. Like-named read-outs stand apart in the source and are kept apart here.

B1: STLM208 (antibody, V domains shown)
VH: EVQLLESGGGLVQPGGSLRLSCAASGFTFSIYDMIWVRQAPGKGLEWVSSIRGEGGGTYYADSVKGRFTISRDNSKNTLYLQMNSLRAEDTAVYYCARDPWSTEGSFFVLDYWGQGTLVTVSS
VL: EIVLTQSPATLSLSPGERATLSCRASQSVDDDLAWYQQKPGQAPRLLIYDASNRATGIPARFSGSGSGTDFTLTISSLEPEDFAVYYCQQYITAPLTFGQGTKVEIK
As for B1, in the test with 18AKF20-->TEG, the Kd is 0.0193 nM, the off-rate (koff) was 0.000229 s⁻¹ and the kon was 1.3e+07 M⁻¹ s⁻¹.

B2: ST2M50 (antibody, V domains shown)
VH: EVQLVQSGAEVKKPGESLKISCKGSGYSFTSYWIGWVRQMPGKGLEWMGIIYPGDSYTRYSPSFQGQVTISADKSISTAYLQWSSLKASDTAMYYCARLSGRFDYWGQGTLVTVSS
VL: B1 VL with D30S, D31N, D32A, D50F, Y91F, I92F, T93N, A94W, L96I
In the case of B2, in test [1], binding was characterised by a dissociation constant (Kd) of 0.045 nM, the koff amounted to 5.1e-05 s⁻¹ and the kon was 1.15e+06 M⁻¹ s⁻¹. In test [2], this molecule gave a Kd of 0.124 nM, an off-rate constant (koff) of 0.00249 s⁻¹ and a kon of 2.01e+07 M⁻¹ s⁻¹.

B3: STLM206 (antibody, V domains shown)
VH: B1 VH with S50T, G57S
VL: B1 VL
notes: IgG; VH3-23 / Vk-L6 frameworks
In test [3], B3 gave an IC50 of 0.4 µg/mL. In test [4], this molecule returned a dissociation constant Kd of 0.025 nM, an off-rate (koff) of 0.00016 s⁻¹ and a kon of 6.39e+06 M⁻¹ s⁻¹. Also, in test [5], the dissociation constant Kd stood at 6 pM, the koff was 0.000583 s⁻¹ and the on-rate (kon) was determined as 9.4e+07 M⁻¹ s⁻¹. Also, the “RGA IC50” value with human ST2L on cells amounted to 0.67 µg/mL.

B4: STLM15 (antibody, human IgG2, V domains shown)
VH: EVQLQESGPGLVKPSQSLSLTCTVTGFSITSDYAWNWIRQFPGSKLEWMGFISYSGDTSFNPSLKSRISVTRDTSKNQFFLQLNSVTTEDTATYYCASYDGYSFDYWGQGTTLTVSS
VL: DIVLTQSPASLAISLGQRATISCRASKSVSTSGSSYMFWYQQKPGQPPKLLIYLASNLESGVPARFSGSGSGTDFTLNIHPVEEEDAAAYYCQHSREIPYTFGGGTKLEIK
notes: Mouse hybridoma C2244 V regions cloned into human IgG2 background = STLM15; also called C2244; C2244/STLM15
B4: the “IC50 (read off the curve)” value in test [6] was about 100 nM.

The Kd is the free concentration of one partner at which half of the binding sites on the other are occupied at equilibrium, for simple one-to-one binding. What is called koff is the rate constant with which the complex falls apart. Broadly, the kon is the rate constant with which the complex forms. A low value points to slow association. A word on the IC50: it is the point on the concentration scale where inhibition reaches its midpoint. Read a high IC50 as lower potency.
